The values that follow come from publication PMC4506714.

One data set deals with SSB (E. coli, UniProt P0AGE0 1-178). Description: EMSA. Background: Mobility shift assays separate free from complexed probe on a gel.
A further data set has as its target RPA (RPA70-RPA32-RPA14) (UniProt P27694;P15927;P35244 1-616;1-270;1-121). Description: EMSA.

Chain of SSB (P0AGE0 whole entry): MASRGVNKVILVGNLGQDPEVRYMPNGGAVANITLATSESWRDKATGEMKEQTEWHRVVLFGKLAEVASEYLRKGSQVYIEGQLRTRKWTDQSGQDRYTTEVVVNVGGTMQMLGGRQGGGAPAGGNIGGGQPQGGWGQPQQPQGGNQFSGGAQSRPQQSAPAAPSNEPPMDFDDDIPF
Chain of RPA (RPA70-RPA32-RPA14) (P27694 whole entry, chain 1 of 3): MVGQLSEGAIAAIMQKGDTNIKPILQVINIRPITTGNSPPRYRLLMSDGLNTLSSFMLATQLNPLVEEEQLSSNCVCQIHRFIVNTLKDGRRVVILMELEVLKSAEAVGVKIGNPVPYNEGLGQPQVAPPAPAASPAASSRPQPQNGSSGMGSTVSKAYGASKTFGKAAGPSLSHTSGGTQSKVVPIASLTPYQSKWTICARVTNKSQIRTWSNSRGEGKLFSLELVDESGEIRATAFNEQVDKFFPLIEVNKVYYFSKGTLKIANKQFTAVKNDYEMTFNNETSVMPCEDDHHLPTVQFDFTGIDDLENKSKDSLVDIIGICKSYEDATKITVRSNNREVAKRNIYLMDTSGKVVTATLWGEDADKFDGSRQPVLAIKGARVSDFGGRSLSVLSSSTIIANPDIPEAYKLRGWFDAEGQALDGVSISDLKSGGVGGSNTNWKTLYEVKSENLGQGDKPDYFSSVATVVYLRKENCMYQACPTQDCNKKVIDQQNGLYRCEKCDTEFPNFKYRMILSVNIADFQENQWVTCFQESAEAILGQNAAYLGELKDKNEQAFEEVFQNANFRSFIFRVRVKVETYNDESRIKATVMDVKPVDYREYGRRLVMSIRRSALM
Chain of RPA (RPA70-RPA32-RPA14) (P15927 whole entry, chain 2 of 3): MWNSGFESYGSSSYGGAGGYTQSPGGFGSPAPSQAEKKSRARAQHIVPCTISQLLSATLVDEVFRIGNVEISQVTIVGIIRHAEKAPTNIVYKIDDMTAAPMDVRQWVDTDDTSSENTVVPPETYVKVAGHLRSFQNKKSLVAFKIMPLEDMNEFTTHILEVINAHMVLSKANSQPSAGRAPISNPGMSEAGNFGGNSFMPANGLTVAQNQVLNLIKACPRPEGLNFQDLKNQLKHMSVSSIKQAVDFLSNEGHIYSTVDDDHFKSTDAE
Chain of RPA (RPA70-RPA32-RPA14) (P35244 whole entry, chain 3 of 3): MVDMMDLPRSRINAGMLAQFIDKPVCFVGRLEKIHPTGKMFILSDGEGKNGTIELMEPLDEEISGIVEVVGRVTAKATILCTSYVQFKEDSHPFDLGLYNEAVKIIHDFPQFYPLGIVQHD

B1: dT30 (ssDNA)
DNA: TTTTTTTTTTTTTTTTTTTTTTTTTTTTTT
Turning to B1, the binding result with SSB and in the data set with RPA (RPA70-RPA32-RPA14) was “binds” in each case.
